Laboratory results from the supplement of paper PMC9170038.

Tested on: MS2 coat protein
Experiment: apparent KD of MS2 coat protein; higher = weaker reporter binding
Settings: Eterna round: R107
Method in brief: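 Titrations with SNAP-549-labelled MS2 coat protein ran in twofold steps from 0.7 or 1.5 nM to 3 µM, each step taking 0.8–1.5 h at the start and 10–20 min toward the end. The targets were designed RNA switches transcribed on-chip from Illumina sequencing clusters, held in 100 mM Tris-HCl pH 7.5, 80 mM KCl, 4 mM MgCl2, without or with constant ligand. Apparent KD was taken per design as the median of normalised cluster binding-curve fits.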

[1] = input ligand: theophylline 20 uM
[2] = input ligand: tryptophan 2.4 mM
[3] = input ligand: theophylline 2 mM

Sequence	apparent KD of MS2 coat protein (input ligand: arginine 13.2 mM)	apparent KD of MS2 coat protein [1]	apparent KD of MS2 coat protein [2]	apparent KD of MS2 coat protein [3]	apparent KD of MS2 coat protein (input ligand: none)
CCCAUACAUGAGGAUCACCCAUGUGUUGAUACCAGCAUAUGUAGAUGCCCUUGGCAGCAAGCUUGGGUCACUGGAAAACAUCUAA [theeternabot_sameState_MS2_Theo_A_38]	23.8 nM	27.4 nM	22.6 nM	–	–
AGUCACUCGAGGUGAUCUGACGAGUGGCAACGAGGACCGGUACGGCCGCCACUCGAAUAAACAUGAGGAUCACCCAUGUACAAAU [T''-M'-T'-T-MS2 - Design 11]	54 nM	216 nM	–	626 nM	–
UAACAUGAGGAUCACCCAUGUAAACUAAGUCGAGGACCGGUACGGCCGCCACUCGAAAUUGAAGAAUUGGCGGAAAAUGUAUGUU [JR_ExcTryptoA_Sub018]	12 nM	17.7 nM	–	13.3 nM	–
AGCGCAGGUCCUGAUACCAGAGACAUGAGGAUCACCCAUGUCCGAUGGUCCUGCCUCAGGCUCCCUUGGCAGCAGGGCUUGUGCU [Exclusion Theophylline B GF10]	10.6 nM	13.1 nM	10.1 nM	–	–
GGGUCGGGCGCGGCCGCCACUGCGGUGAUGUGACAUGAGGAUCACCCAUGUUGUCAUGUGGCACAUAGGACCGGGCGCCCGGCCC [#1 Exclusion - Tryptophan B Attempt #8 (HarryS)]	34.7 nM	46.8 nM	29.1 nM	34.7 nM	29.1 nM
GACAUGAGGAUCACCCAUGUACCGCGAGAAGGAGCGCGGAUAAACGCAGGUAGGUCGCUCGUGGGCUUAUAUUCAAUUGUAAGCU [Usence]	24.8 nM	43.1 nM	30.4 nM	44.6 nM	33.2 nM
GACAUGAGGAUAGAUACCAGCGACAUGAGGAUCACAUGAGGAUCACCCAUGUGUAGUAUACGCCCUUGGCAGCUAACAUGAGGAU [Same State Theophylline B 3]	59.5 nM	129 nM	68.1 nM	–	–
AACAUGAGGAUCACCCAUGUGUCCUCGAAACGAGGACCGGUACGGCCGCCACUCGAGCUAUGUUGACGAAAAGUCAGCAUAGCAA [Mat - Exclusion - Trytophan A - D13]	123 nM	316 nM	1080 nM	374 nM	276 nM
GGAUUCGGCACGGCCGCCACUGCGGUGGUGUGACAUGAGGAUCACCCAUGUUGUCAUGCGGCCCUUAGGACCGGGUGGCGUUUCC [#1 Exclusion - Tryptophan B Attempt #21 (HarryS)]	47.1 nM	76.2 nM	–	73.3 nM	–
UUGGGUUUGUGAAGGAGCGGGAAAGAUAUAUAUUUAAUCCUAACAUGAGGAUCACCCAUGUCCCAGGUAGGUCGCGCGGGUUUGG [12.O]	33.9 nM	46.4 nM	46.9 nM	64.3 nM	47.1 nM
GUCGGUACGUCGGCAAAGCCGAUGUGCCAGCGAGGACCGGUACGGCCGCCACUCGUACAUGAGGAUCACCCAUGUCCGGUCCGGC [Omei Trp SS A C v2]	32.5 nM	84.4 nM	–	92.4 nM	–
UGUAUGGACUGAAGGAGCGGGAAAAUAACUUGAGGAUCACCCAGGUAAAAGGCGAAAGCCACCCAGGUAGGUCGCAGUCCAUACU	21.5 nM	30.1 nM	25.9 nM	22.4 nM	26.2 nM
UGCGUACAUGAGGAUCACCCAUGUAUAGAUACCAGUCACCCAUGUGGCCCUUGGCAGCUAACAUGAGGAUCACUACAUGAGGAUC [Exclusion Theophylline A 3]	24.3 nM	72.2 nM	32.7 nM	–	–
AAUGGCCGUACCGGAAGGGUGAUCCUCAAACGAGGACCGGUACGGCCGCCACUCGAUAACAUGAGGAUCACCCAUGUAAUAAUAA [|T'-M'-Trp-Ms2|_Design13]	85 nM	481 nM	–	677 nM	–
CUAAGAGCGGCGGCCGCCACUGGUAACCAAGAGGCGGAGCCUCUGACAUGAGGAUCACCCAUGUUCAGGACCGGGUCGUCUUAGA [#07 Same State - Tryptophan B]	7.23 nM	13.6 nM	10.9 nM	18.5 nM	12.2 nM
CCGUUUUAUGGCGACAUAGGGCGGACUGAAGGAGCGGUAUAAAAGCCAGGUAGGUCGCAGAGAUCCACAUGAGGAUCACCCAUGU [!0.aA]	29.4 nM	45.8 nM	51 nM	41 nM	39.7 nM
CAACUGGCAGAGGAUACCAGAUCAUUUAGAAACAUGAGGAUCACCCAUGUCGUAAGGAUAAUCCCUUGGCAGCCUAUCCGCCUCG [theeternabot_sameState_MS2_Theo_B_48]	14.2 nM	16.6 nM	14.5 nM	–	–
UGUAUGGACUGAAGGAGCGGGUUGAUAAUCUGAGGAUCACCCAGGUAAAAGGCGAAAGCCGCCCAGGUAGGUCGCAGUCCAUACU	20.5 nM	36.1 nM	33.4 nM	31.5 nM	25.3 nM

Sequence	apparent KD of MS2 coat protein (input ligand: arginine 13.2 mM)	apparent KD of MS2 coat protein [1]	apparent KD of MS2 coat protein [2]	apparent KD of MS2 coat protein [3]	apparent KD of MS2 coat protein (input ligand: none)
AGCGACAUGCGUGAUACCAGCUACAUGAGGAUCACCCAUGUACGUCAGUAAUGACUGUGUAGCCCUUGGCAGCAUAAUGCAUGUC [Exclusion - Theophylline B (Freestyle 18)]	36.1 nM	55.8 nM	33.3 nM	–	–
GCUAGGUCAUCGGCCGCCACUAACGACGGUUCGAACAUGAGGAUCACCCAUGUGCCACAUGCGCAUAGGACCGGGAUGACCUAGC [SSTB NP+V+V2 #6]	35.7 nM	24.3 nM	11.7 nM	21.2 nM	19.5 nM
UAGACGGCCGGAAGGAGCGGUACAUGAGGAUCACCCAUGUACUUCUGGGCAUCCGUAGUGUGCCAGGUAGGUCGCCGGUUGCGGG [XArg-B20]	45.9 nM	32.4 nM	19.9 nM	33.1 nM	14.4 nM
AUCGUACCUAGUGAUACCAGCAAGUGAUCAUAACAUGAGGAUCACCCAUGUAAUCAGUGAUGCCCUUGGCAGCAUAAUCGUUACA [Same State - Theophylline B (Freestyle 1)]	118 nM	228 nM	173 nM	–	–
UAUCCACAUGAGGAUCACCCAUGUAAGGAAGGAGCGGUGAAUGCACCAGGUAGGUCGCCUUGCUGAGGACAGCCGGUGGAUUCGU [Exclusion - Arginine A (Freestyle 24)]	14.7 nM	17.9 nM	16.2 nM	21.9 nM	17.7 nM
ACUGGACAUGAGGAUCACCCAUGUGGCGAUACCAGUUUCAGCGGGAACCCUUGGCAGCGCGGUGCCGGCCAUAGAAGUUCUGGGA [theeternabot_sameState_MS2_Theo_A_39]	42.1 nM	56.1 nM	40.6 nM	–	–
AACGUAUACAGAAGGAGCGUGAUUUAUUAUUCUUUAAGAUAUACAUGAGGAUCACCCAUGUCACAGGUAGGUCGCUGUAUUCGUA [JR_ExcArginiB_Sub025]	31 nM	42.3 nM	34.6 nM	36.7 nM	34.3 nM
ACGAGACGUCUGGAUACCAGCCCAGCGAUAAACAUGAGGAUCACCCAUGUCAAACCACCCGGCCCUUGGCAGCCACGUACCUCAC [theeternabot_sameState_MS2_Theo_B_10]	15.9 nM	19.1 nM	14.9 nM	–	–
AAGUAAACAUGAGCAAAGCUCAUGUGCGAAGGAGCGGCGGAAACGCCAGGUAGGUCGCGCACAUGAGCAUCAGCCAUGUGUAUCA [Omei Arginine B SS A v2]	45.3 nM	33.5 nM	9 nM	22.1 nM	31 nM
UGUAAUGUGGGAAGGAGCGCAUACUUCACAUGAGGAUCACCCAUGUCAAGACGUGAGUCAGUGCAGGUAGGUCGCCUAGUUUAGA [Same State - Arginine B (Freestyle 18)]	37.2 nM	75.4 nM	42 nM	88.9 nM	97 nM
GGCAAAAGGUCGGCCGCCACUGUAGGAUGUGUUCUUUCACAUGAGGAUCACCCAUGUUGUUAUUAUAGGACCGGGAUUUUAGGAC [39MS split4]	20.6 nM	31.7 nM	–	23.4 nM	–
GAUGAACUAUUUGAUACCAGACUACAUGAGGAUCACCCAUGUGCGCGUCGUCCUCUGCCAGUCCCUUGGCAGCAAAUAGUUUAUC [XTheo B #9]	69.8 nM	140 nM	85.2 nM	–	–
ACGAACGCACCUGAGGAUCACCCGGGUGAUACCAGCCUGGAAACAGGCCCUUGGCAGCACCUAAAAUAAAGGUAACGUUCGAAUA [TheoAX9 #MicroSwitchBubble #AlternativeMS2]	116 nM	234 nM	303 nM	590 nM	335 nM
GCGCGGCGAGUGCGGCGUGUUCCGCUCCGUCGAGGACCGGUACGGCCGCCACUCGACAUGAGGAUCACCCAUGUCGCCGCGCGCG [Exclusion - Tryptophan A Attempt #3]	13.9 nM	22.9 nM	13.5 nM	48.3 nM	13.3 nM
AUAUAUACAUGAGGAUCACCCAUGUUAUUUCGAGGACCGGUACGGCCGCCACUCGAUAGAGUGGAAGUAACAUUUGUUAGAUGAU [JR_SSTryptoA_Sub013]	12.8 nM	17 nM	–	16.3 nM	–
UGGACGCAACGAGCACGAGGUCGGCAGCUACGAGGACCGGUACGGCCGCCACUCGAGUUACGACAUGAGGAUCACCCAUGUAAGG [theeternabot_exclusion_MS2_Trp_A_45]	27.9 nM	61.1 nM	–	51.8 nM	–
AGACAUGAGGAUCACCCAUGUAGUACGGAUACCAGAUCCAGAUGCGUCCCUUGGCAGCUGUAGUACAGCGUUACAUCGCUCGUAG [Exclusion - Theophylline A (Freestyle 24)]	16.9 nM	24.8 nM	22.4 nM	–	–
AAAUAAAUACAUGAGGAUCACCCAUGUGAAGGAGCGGCCGUUAGGCCAGGUAGGUCGCGCAUGAAUAACUCCGUGCAUAAGCACA [MAT - Exclusion Arginine A - Mod of Eli - D18]	10.6 nM	16.6 nM	12.3 nM	12.2 nM	11.1 nM
